From article PMC4243253

Tested on: N[C@@H](CC(=O)c1ccccc1NC=O)C(=O)O
Assay: purified protein
Settings: pH 7.4; 25.0 °C

BaKynB (Bacillus anthracis)
Km: 400 ± 50 µM
Vmax: 0.0654 µmol/min
kcat/Km: 126000 M⁻¹ s⁻¹
